Patent US20090275502A1, “METHODS AND COMPOSITIONS FOR ENHANCING DEVELOPMENTAL POTENTIAL OF OOCYTES AND PREIMPLANTATION EMBRYOS” (MOUNT SINAI HOSPITAL, priority 2005, published 2009)

Experiments:
Format in all cases: cell-based, mouse
FVB oocytes [1] = experiment: Reactive oxygen species (H2DCFDA) content of FVB oocytes; conditions: co-treatment of FVB oocytes; inhibitor 2 μg ml^−1, 30 min; data not shown
Procedure: Reduced glutathione (GSH) content: Quantitation of cellular GSH was assayed by use of monochlorobimane (Molecular Probes, Eugene, Oreg.), a cell-permeant dye that becomes fluorescent upon conjugation to thiol groups (Nasr-Esfahani and Johnson 1992). One group of untreated oocytes served as a control for measuring baseline GSH levels, whereas two other groups of oocytes were treated with I mM hydrogen peroxide (Sigma). For the latter, one group was exposed to hydrogen peroxide for 90 min (oxidative insult) whereas the second group was incubated with hydrogen peroxide for 30 min and transferred to fresh culture medium without hydrogen peroxide for an additional 60 min (recovery after oxidative insult). During the last 15 min of incubation, monochlorobimane was added to a final concentration of 1 mM, after which the oocytes were washed in fresh culture medium. Imaging and micrograph analyses were then conducted using a deconvolution microscope equipped with a cyan fluorescent protein filter. The average fluorescence intensities were tabulated on a per oocyte basis, and the data were then compiled per group. Reactive oxygen species: Formation of ROS was determined through the use of 2′,7′-dichlorodihydrofluorescein diacetate (H2DCFDA; Molecular Probes) as described (Yang et al. 1998). The H2DCFDA dye is membrane permeant, and upon entering the cell the acetate groups are hydrolyzed, creating a membrane impermeant form of the dye (H2DCF). Endogenous ROS oxidize this polar form of the dye to a quantifiable fluorogenic compound (DCF). Oocytes were mixed with a freshly prepared solution of 0.01 M H2DCFDA and incubated for 15 min. After extensive washing in fresh culture medium, imaging was carried out using a deconvolution microscope with a FITC filter. Total light intensity for each optical section and average light intensity for each oocyte were determined using the Delta Vision Software Analysis program. In order to determine baseline fluorescence, control oocytes (unstained) were incubated with an appropriate volume of vehicle (DMSO) prior to imaging. […]

FVB oocytes [2] = experiment: Electron microscopy of mitochondrial ultrastructure in FVB oocytes; conditions: 10 mM, 3 h; versus vehicle
Procedure: Electron microscopy: Oocytes were cultured without or with pyruvate (10 mM) for 3 h prior to being fixed for EM tomography. The oocytes were embedded in agarose and prepared for tomography using conventional protocols for good structural preservation (Ricci et al. 2004). To survey the preservation quality of the oocytes, thin-sectioned materials (−80 nm) were examined using a JEOL 1200FX electron microscope. Three-dimensional reconstructions of portions of the cell containing mitochondria were generated using standard techniques (Perkins et al. 2003). Sections with a thickness between 300-500 nm were cut out, and stained for 30 min in 2% aqueous uranyl acetate, followed by 30 min in lead salts. Next, fiducial cues consisting of 20 nm colloidal gold particles were deposited on both sides of each section.
For each reconstruction, a series of images at regular tilt increments were collected with a JEOL 4000EX intermediate-voltage electron microscope operated at 400 kV. In order to limit anisotropic specimen thinning during image collection, the specimens were irradiated before initiating a tilt series. […] Tilt series were recorded at a magnification of 20,000× with an angular increment of 2° from −60° to +60° about an axis perpendicular to the optical axis of the microscope using a computer-controlled goniometer to achieve accurate increments at each angular step. […]

B6C3F1 oocytes = experiment: Apoptosis in cultured B6C3F1 oocytes after microinjection
Procedure: (§1) Oocyte isolation and culture: Oocytes were collected after superovulation as described (Perez et al. 1997; Perez et al. 1999; Morita et al. 2000). Briefly, ovulated oocytes were denuded of cumulus cells by a 1-min incubation in 80 IU ml of hyaluronidase (Sigma, St. Louis, Mo.), followed by three washes with culture medium. All cultures were carried out in human tubal fluid (Irvine Scientific, Santa Ana, Calif.) supplemented with 0.5% BSA. The oocytes were maintained in 0.1 ml drops of culture medium under paraffin oil, and incubated at 37° C. in a humidified atmosphere of 5% CO2 and 95% air.
(§2) In-vitrofertilization and embryo culture: Female mice were superovulated as described above and cumulus-oocyte complexes from the indicated strains were mixed with capacitated sperm collected from adult male mice of the respective strain for in-vitro fertilization (Morita et al. 2000). […] Since zygotes progress to the blastocyst stage of development within 96 h and begin hatching, embryos were fixed at this time and stained with the DNA-binding dye Hoechst 33342 (Sigma) for light and fluorescence microscopic analysis of blastocyst cell number and quality. […] Analysis of DNA “comets” to generate quantitative data on the percent of undamaged versus damaged DNA was performed using the VisComet program (Impuls Computergestutzte Bildanalyse GmbH, Gilching, Germany). […]

AKR/J zygotes = experiment: Preimplantation embryonic development of in-vitro fertilized AKR/J oocytes to the blastocyst stage
Procedure: In-vitrofertilization and embryo culture: Female mice were superovulated as described above and cumulus-oocyte complexes from the indicated strains were mixed with capacitated sperm collected from adult male mice of the respective strain for in-vitro fertilization (Morita et al. 2000). After 2 h, the cumulus-oocyte complexes were washed and maintained in KSOM medium (Specialty Media, Phillipsburg, N.J.) to determine fertilization rates and monitor embryonic progression. Since zygotes progress to the blastocyst stage of development within 96 h and begin hatching, embryos were fixed at this time and stained with the DNA-binding dye Hoechst 33342 (Sigma) for light and fluorescence microscopic analysis of blastocyst cell number and quality. Apoptosis analyses: Oocytes were evaluated as described (Perez et al. 1997; Perez et al. 1999; Mortia et al. 2000) for characteristics of apoptosis, including morphological changes (e.g., cellular condensation, budding and fragmentation) and biochemical alterations (i.e., DNA cleavage using Comet Assay Kit; Trevigen, Gaithersburg, Md.). Analysis of DNA “comets” to generate quantitative data on the percent of undamaged versus damaged DNA was performed using the VisComet program (Impuls Computergestutzte Bildanalyse GmbH, Gilching, Germany). […]

AKR/J oocytes [3] = experiment: Comet assay of DNA damage in cultured AKR/J oocytes after microinjection; conditions: 6 h culture after microinjection, versus non-injected AKR/J oocytes
Procedure: as §1, §2

FVB oocytes [4] = experiment: Apoptosis in cultured FVB oocytes; conditions: microinjection; 24 h in vitro
Procedure: as §1, §2

AKR/J oocytes [5] = experiment: Apoptosis in cultured AKR/J oocytes; conditions: microinjection; versus non-injected and BSA-injected oocytes
Procedure: as §1, §2

Which “reduction of ROS content” value (FVB oocytes [1]) does the source give for `CC[C@H]1/C=C/C=C/C[C@@H](C)[C@H](O)[C@@](C)(O)C(=O)[C@@H](C)[C@H](O)[C@@H](C)C(=O)[C@@H](C)[C@H](O)[C@@H](C)/C=C/C(=O)O[C@@H]2[C@H](C)[C@H](CC1)O[C@]1(CC[C@H](C)[C@H](C[C@@H](C)O)O1)[C@H]2C` [oligomycin] here?
The value was 70%.

For `CC(=O)C(=O)O` [pyruvate], which “reduction in number of abnormal mitochondria in FVB oocytes” value (FVB oocytes [2]) is on record?
The value was “more than 75%”.

How did the “reduction of ROS content” value (FVB oocytes [1]) turn out when `C=C(C)[C@H]1Cc2c(ccc3c2O[C@@H]2COc4cc(OC)c(OC)cc4[C@@H]2C3=O)O1` [rotenone] was run?
Its value is 54%.

With antimycin-A as the molecule, how does the “reduction of ROS content” value (FVB oocytes [1]) read?
The value was 70%.

Which “apoptosis in B6C3F1 oocytes” value (B6C3F1 oocytes; subsequent 24 h culture) does the source give for “cytochrome c: cytochrome c microinjected into oocytes (6 pl of a 400 μM stock)” here?
Its value is “did not affect the incidence of apoptosis”.

B1: Rad51: recombinant Rad51 DNA repair protein (Kurumizaka et al. 1999), microinjected (protein, UniProt Q06609 2-339, looked up)
DNA repair protein RAD51 …: AMQMQLEANADTSVEEESFGPQPISRLEQCGINANDVKKLEEAGFHTVEAVAYAPKKELINIKGISEAKADKILAEAAKLVPMGFTTATEFHQRRSEIIQITTGSKELDKLLQGGIETGSITEMFGEFRTGKTQICHTLAVTCQLPIDRGGGEGKAMYIDTEGTFRPERLLAVAERYGLSGSDVLDNVAYARAFNTDHQTQLLYQASAMMVESRYALLIVDSATALYRTDYSGRGELSARQMHLARFLRMLLRLADEFGVAVVITNQVVAQVDGAAMFAADPKKPIGGNIIAHASTTRLYLRKGRGETRICKIYDSPCLPEAEAMFAINADGVGDAKD
For B1, which “blastocyst formation rates of AKR/J zygotes” value (AKR/J zygotes; microinjection into AKR/J zygotes, compared with C57BL/6 zygotes) is on record?
Its value is “levels not different from those observed with C57BL/6 zygotes”.

And the “microinjected AKR/J zygotes completing development to the blastocyst stage” value (AKR/J zygotes; microinjection into fertilized AKR/J oocytes, untreated less than 10%)?
The value was “more than 30%”.

And the “extent of DNA damage” value (AKR/J oocytes [3])?
The value was “decreased the extent of DNA damage”.

What about the “incidence of apoptosis in FVB oocytes” value (FVB oocytes [4]) of the same molecule?
The value was “no effect”.

And the “apoptosis in AKR/J oocytes” value (AKR/J oocytes [5])?
The value was “significantly suppressed apoptosis”.

B2: Smac/DIABLO: recombinant death-promoting protein released along with cytochrome c from mitochondria (protein, UniProt Q9NR28 22-239, looked up)
Diablo IAP-binding …: LCVPVVANFKKRCFSELIRPWHKTVTIGFGVTLCAVPIAQKSEPHSLSSEALMRRAVSLVTDSTSTFLSQTTYALIEAITEYTKAVYTLTSLYRQYTSLLGKMNSEEEDEVWQVIIGARAEMTSKHQEYLKLETTWMTAVGLSEMAAEAAYQTGADQASITARNHIQLVKLQVEEVHQLSRKAETKLAEAQIEELRQKTQEEGEERAESEQEAYLRED
How did the “increase in incidence of apoptosis in B6C3F1 oocytes” value (B6C3F1 oocytes; 24 h culture) turn out when B2 was run?
The value was about 3 fold.
